The source of these data is article doi:10.64898/2025.12.19.695442, “TRIM37 recognizes a bipartite degron to ubiquitinate centrosome substrates” (bioRxiv, 2025).

Sequences and labels used below:
B2: TRIM37 (enzyme, UniProt O94972 1-964, looked up)
chain: MDEQSVESIAEVFRCFICMEKLRDARLCPHCSKLCCFSCIRRWLTEQRAQCPHCRAPLQLRELVNCRWAEEVTQQLDTLQLCSLTKHEENEKDKCENHHEKLSVFCWTCKKCICHQCALWGGMHGGHTFKPLAEIYEQHVTKVNEEVAKLRRRLMELISLVQEVERNVEAVRNAKDERVREIRNAVEMMIARLDTQLKNKLITLMGQKTSLTQETELLESLLQEVEHQLRSCSKSELISKSSEILMMFQQVHRKPMASFVTTPVPPDFTSELVPSYDSATFVLENFSTLRQRADPVYSPPLQVSGLCWRLKVYPDGNGVVRGYYLSVFLELSAGLPETSKYEYRVEMVHQSCNDPTKNIIREFASDFEVGECWGYNRFFRLDLLANEGYLNPQNDTVILRFQVRSPTFFQKSRDQHWYITQLEAAQTSYIQQINNLKERLTIELSRTQKSRDLSPPDNHLSPQNDDALETRAKKSACSDMLLEGGPTTASVREAKEDEEDEEKIQNEDYHHELSDGDLDLDLVYEDEVNQLDGSSSSASSTATSNTEENDIDEETMSGENDVEYNNMELEEGELMEDAAAAGPAGSSHGYVGSSSRISRRTHLCSAATSSLLDIDPLILIHLLDLKDRSSIENLWGLQPRPPASLLQPTASYSRKDKDQRKQQAMWRVPSDLKMLKRLKTQMAEVRCMKTDVKNTLSEIKSSSAASGDMQTSLFSADQAALAACGTENSGRLQDLGMELLAKSSVANCYIRNSTNKKSNSPKPARSSVAGSLSLRRAVDPGENSRSKGDCQTLSEGSPGSSQSGSRHSSPRALIHGSIGDILPKTEDRQCKALDSDAVVVAVFSGLPAVEKRRKMVTLGANAKGGHLEGLQMTDLENNSETGELQPVLPEGASAAPEEGMSSDSDIECDTENEEQEEHTSVGGFHDSFMVMTQPPDEDTHSSFPDGEQIGPEDLSFNTDENSGR
notes: TRIM37, E3 ubiquitin ligase; 459-964; The co-immunoprecipitation methods say only 'TRIM37 (1 ug)', the same amount as the Abcam protein of the ubiquitination assay; also called purified TRIM37; source: bought: Abcam ab269066

In one data set the target is GFP-Cep192(IDR+ASH8). Briefly: pull-down; supernatant depletion: 30 nM TRIM37 with a range of GFP-Cep192(IDR+ASH8) concentrations and GFP-Trap magnetic particles, 25 mM HEPES pH 7.4, 150 mM KCl, 1 mM DTT, 1 hr at room temperature; unbound TRIM37 in the supernatant by Western blot; one phase association fit. For orientation: In western blotting, separated proteins are transferred to a membrane and probed.

Data set [1] has as its target Centrobin peptide motif (Homo sapiens) (UniProt Q8N137). The note with it: cited from earlier work.
For the data set “TRIM37”, the target named is B2. Briefly: pull-down; purified GFP fusion (1 uM) incubated with TRIM37 (1 ug) 1 hr at 37°C, precipitated with GFP-Trap magnetic particles; washes 150 mM KCl, 25 mM HEPES, 1% glycerol, 0.05% NP-40, last wash 500 mM KCl; Western blot against TRIM37. To be noted: both partners purified.
Data set [2] addresses T1, full-length Cep192 tagged with GFP (UniProt Q8TEP8-3 1-2537).
T1 construct: Cep192, full length (2537 aa by the printed range 2070-2537); MW with GFP = 307 kDa; also called GFP-Cep192; source: baculovirus-infected SF9 insect cells, purified (Ni-NTA, gel filtration)
The data set is described as above. To be noted: both partners purified.

Data set [3] concerns the molecule itself. As to the kind of experiment: cross-linking; XL-MS: 5 uM TRIM37(C18R) and 5 uM IDR+ASH8, 100 nM ZnCl2, 25 mM HEPES, 150 mM KCl pH 7.4, 20 min at 37°C, 1 mM DSSO 5 min; band of the complex cut from SDS-PAGE; calculated FDR <1%.

With TRIM37 (from UniProt O94972 1-964), the Kd (in general, a measure of binding affinity in units of concentration) with GFP-Cep192(IDR+ASH8) stood at 0.075 µM.
As to TRIM37 MATH (from UniProt O94972), the Kd in data set [1] was 14 µM.

B1: Cep192 C-terminus fragment (2070-2537 aa), GFP-tagged (domain or fragment, UniProt Q8TEP8-3 2070-2537, looked up)
chain: REFLQPSSKASLESTSDLGASGKHGGNVSLDVLPVKGPQGSPLLSRAARPPLDQLASEEPWTVLPEHLILVAPSPCDMAKTGRFQIVNNSVRLLRFELCWPAHCLTVTPQHGCVAPESKLQILVSPNSSLSTKQSMFPWSGLIYIHCDDGQKKIVKVQIREDLTQVELLTRLTSKPFGILSPVSEPSVSHLVKPMTKPPSTKVEIRNKSITFPTTEPGETSESCLELENHGTTDVKWHLSSLAPPYVKGVDESGDVFRATYAAFRCSPISGLLESHGIQKVSITFLPRGRGDYAQFWDVECHPLKEPHMKHTLRFQLSGQSIEAENEPENACLSTDSLIKIDHLVKPRRQAVSEASARIPEQLDVTARGVYAPEDVYRFRPTSVGESRTLKVNLRNNSFITHSLKFLSPREPFYVKHSKYSLRAQHYINMPVQFKPKSAGKFEALLVIQTDEGKSIAIRLIGEALGKN
notes: Cep192 residues 2070-2537 (ASH6, ASH7, ASH8 and the IDRs between them); also called C-terminal Cep192; Cep192 C-terminal fragment; source: purified (Ni-NTA, gel filtration)
For the molecule B1, the binding result with TRIM37 is “binds”.
Turning to B2, the binding result in data set [2] was “binds”.

B3: TRIM37(C18R) (enzyme, UniProt O94972 1-964, looked up)
chain: MDEQSVESIAEVFRCFIRMEKLRDARLCPHCSKLCCFSCIRRWLTEQRAQCPHCRAPLQLRELVNCRWAEEVTQQLDTLQLCSLTKHEENEKDKCENHHEKLSVFCWTCKKCICHQCALWGGMHGGHTFKPLAEIYEQHVTKVNEEVAKLRRRLMELISLVQEVERNVEAVRNAKDERVREIRNAVEMMIARLDTQLKNKLITLMGQKTSLTQETELLESLLQEVEHQLRSCSKSELISKSSEILMMFQQVHRKPMASFVTTPVPPDFTSELVPSYDSATFVLENFSTLRQRADPVYSPPLQVSGLCWRLKVYPDGNGVVRGYYLSVFLELSAGLPETSKYEYRVEMVHQSCNDPTKNIIREFASDFEVGECWGYNRFFRLDLLANEGYLNPQNDTVILRFQVRSPTFFQKSRDQHWYITQLEAAQTSYIQQINNLKERLTIELSRTQKSRDLSPPDNHLSPQNDDALETRAKKSACSDMLLEGGPTTASVREAKEDEEDEEKIQNEDYHHELSDGDLDLDLVYEDEVNQLDGSSSSASSTATSNTEENDIDEETMSGENDVEYNNMELEEGELMEDAAAAGPAGSSHGYVGSSSRISRRTHLCSAATSSLLDIDPLILIHLLDLKDRSSIENLWGLQPRPPASLLQPTASYSRKDKDQRKQQAMWRVPSDLKMLKRLKTQMAEVRCMKTDVKNTLSEIKSSSAASGDMQTSLFSADQAALAACGTENSGRLQDLGMELLAKSSVANCYIRNSTNKKSNSPKPARSSVAGSLSLRRAVDPGENSRSKGDCQTLSEGSPGSSQSGSRHSSPRALIHGSIGDILPKTEDRQCKALDSDAVVVAVFSGLPAVEKRRKMVTLGANAKGGHLEGLQMTDLENNSETGELQPVLPEGASAAPEEGMSSDSDIECDTENEEQEEHTSVGGFHDSFMVMTQPPDEDTHSSFPDGEQIGPEDLSFNTDENSGR
notes: TRIM37 with C18R; cross-links are reported from the N-terminus (a.a. 1-458) and the tail (a.a. 459-964); source: purified
For B3, the binding result in data set [3] is “binds”.
